Results from publication PMC7547722, “A versatile soluble siglec scaffold for sensitive and quantitative detection of glycan ligands” (Nature Communications, 2020).
Several values for one entry are separate records, joined by “and”; a condition that tells them apart may be missing. Equal entries are not always repeated.

B1: Sig-3 R119A: CD33-Fc essential arginine mutant (protein, UniProt P20138 18-259, looked up, variant R119A)
extracellular domain: DPNFWLQVQESVTVQEGLCVLVPCTFFHPIPYYDKNSPVHGYWFREGAIISRDSPVATNKLDQEVQEETQGRFRLLGDPSRNNCSLSIVDARRRDNGSYFFAMERGSTKYSYKSPQLSVHVTDLTHRPKILIPGTLEPGHSKNLTCSVSWACEQGTPPIFSWLSAAPTSLGPRTTHSSVLIITPRPQDHGTNLTCQVKFAGAGVTTERTIQLNVTYVPQNPTTGIFPGDGSGKQETRAGVVH
modifications: extracellular domain fused to human IgG1 Fc
notes: CD33-Fc essential arginine mutant
B2: Sig-16 R120A: Siglec-16-Fc essential arginine mutant (protein, UniProt A6NMB1 17-434, looked up, variant R120A)
extracellular domain: NKDPSYSLQVQRQVPVPEGLCVIVSCNLSYPRDGWDESTAAYGYWFKGRTSPKTGAPVATNNQSREVAMSTRDRFQLTGDPGKGSCSLVIRDAQREDEAWYFFAVERGSRVRHSFLSNAFFLKVTALTQKPDVYIPETLEPGQPVTVICVFNWAFKKCPAPSFSWTGAALSPRRTRPSTSHFSVLSFTPSPQDHDTDLTCHVDFSRKGVSAQRTVRLRVASLELQGNVIYLEVQKGQFLRLLCAADSQPPATLSWVLQDRVLSSSHPWGPRTLGLELPGVKAGDSGRYTCRAENRLGSQQRALDLSVQYPPENLRVMVSQANRTVLENLRNGTSLRVLEGQSLRLVCVTHSSPPARLSWTWGEQTVGPSQPSDPGVLQLPRVQMEHEGEFTCHARHPLGSQRVSLSFSVHCKSGPMTG
modifications: extracellular domain fused to human IgG1 Fc
notes: Siglec-16-Fc essential arginine mutant
B3: Siglec-9-Fc R120A (protein, UniProt Q9Y336 18-348, looked up, variant R120A)
extracellular domain: QTSKLLTMQSSVTVQEGLCVHVPCSFSYPSHGWIYPGPVVHGYWFREGANTDQDAPVATNNPARAVWEETRDRFHLLGDPHTKNCTLSIRDARRSDAGRYFFAMEKGSIKWNYKHHRLSVNVTALTHRPNILIPGTLESGCPQNLTCSVPWACEQGTPPMISWIGTSVSPLDPSTTRSSVLTLIPQPQDHGTSLTCQVTFPGASVTTNKTVHLNVSYPPQNLTMTVFQGDGTVSTVLGNGSSLSLPEGQSLRLVCAVDAVDSNPPARLSLSWRGLTLCPSQPSNPGVLELPWVHLRDAAEFTCRAQNPLGSQQVYLNVSLQSKATSGVTQG
modifications: extracellular domain fused to human IgG1 Fc

Experiments:
[1] = test system: neutrophils (CD15+), human splenocytes; assay: Siglec-Fc (CD22-Fc V1/V2, with or without Fc receptor block) binding to splenocytes, flow cytometry; assay type: cell-based; details: Suppl Fig 12; three replicate columns
Method: (§1) For human splenocytes, the sample was homogenized in media through a 40 µm filter (Corning) under sterile conditions. Samples were centrifuged at 300 rcf for 5 min. The resulting pellet from the spleen sample and whole human blood were treated with RBC lysis buffer (7 min) and centrifuged at 300 rcf and the RBC lysis was repeated twice more until no RBC remained in the pellet. Samples were treated with human Fc-receptor blocking agent (TruStain FX, Biolegend) in flow buffer (HBSS, 0.1% BSA, 5 mM EDTA). For analysis, the following cocktail was used: hSig8 (PerCP/Cy5.5, clone 7C9, Biolegend cat. no. 347108, 1:200), hCD123 (PE/Cy7, clone 6H6, Biolegend cat. no. 306010, 1:200), hCD19 (PE, clone SJ25C1, Biolegend cat. no. 363004, 1:200), hCD3 (FITC, BD Pharmingen cat. no. 555332, 1:50), hCD14 (BV605, clone M5E2, BD Horizon cat. no. 564056, 1:200), hCD15 (BUV395, clone HI98, BD Horizon cat. no. 563872, 1:200), hCD56 (BV510, clone NCAM16.2, BD Horizon cat. no. 563041, 1:200). For human peripheral blood samples, we additionally used hHLA-DR (APC-Cy7, clone L243, Biolegend cat. no. 307618, 1:200). Pre-complexed Siglec-Fc/Strep-Tactin-AF647 (described above) was added to the antibody cocktail, added to cells, and allowed to stain at 4 °C for 45 min. The cells were then centrifuged at 300 rcf for 5 min and resuspended in flow buffer containing 1 µg/mL propidium iodide prior to analysis by flow cytometry.
(§2) Flow cytometry was performed on a BD LSRFortessa™ X-20 cell analyzer using BD FACSDiva Software Version 8.0.1 and data was processed using FlowJo LLC. Version 9.9.6 and Graphpad Prism 8. The live, single cell populations were gated out with two gates to obtain the median fluorescence intensity (MFI), which indicates binding of the Siglec-Fc-secondary complex to the cell surface. Control cells that were incubated with Strep-Tactin-AF647 (0.55 μg/mL, 0.57 pmol) was used to determine the baseline fluorescence. Number of cells (# cells) plotted indicates percentage of max (% max).

[2] = test system: Jurkat cells; assay: Flow cytometry, pre-complexed Siglec-Fc binding; assay type: cell-based; details: Strep-Tactin-AF647, replicates
Method: (§3) Strep-Tactin-AF647 (0.55 μg/mL, 0.57 pmol), streptavidin (Biolegend), or anti-human igG1 (Biolegend) was added to Siglec supernatant (50 μL) or purified Siglec and allowed to sit at 4 °C for 15 min. After, the pre-complexed solution was added to cells in a 96-well U-bottom plate for 30 min at 4 °C. After, 200 μL of flow buffer (HBSS, 0.1% BSA, 5 mM EDTA) was added and the plate was spun down at 300 rcf for 5 min. The cells were resuspended in 200 μL of flow buffer and processed through the flow cytometer.
as §2

[3] = test system: A549 cells; assay: Flow cytometry, pre-complexed Siglec-Fc binding; assay type: cell-based; details: Strep-Tactin-AF647, replicates
Method: as §3, §2

[4] = test system: HuH7 cells; assay: Flow cytometry, pre-complexed Siglec-Fc binding; assay type: cell-based; details: Strep-Tactin-AF647, replicates
Method: as §3, §2

[5] = test system: HEK293T cells; assay: Flow cytometry, pre-complexed Siglec-Fc binding; assay type: cell-based; details: HEK; Strep-Tactin-AF647; replicates
Method: as §3, §2

[6] = test system: K562 cells; assay: Flow cytometry, pre-complexed Siglec-Fc binding; assay type: cell-based; details: Strep-Tactin-AF647, replicates
Method: as §3, §2

[7] = test system: HS578T; assay: Flow cytometry, pre-complexed Siglec-Fc binding to breast cancer cell line; assay type: cell-based; details: Strep-Tactin-AF647, replicates
Method: as §3, §2

[8] = test system: MDA-MB-231; assay: as above; assay type: cell-based; details: Strep-Tactin-AF647, replicates
Method: as §3, §2

[9] = test system: ZR-75-1; assay: as above; assay type: cell-based; details: Strep-Tactin-AF647, replicates
Method: as §3, §2

[10] = test system: MCF7; assay: as above; assay type: cell-based; details: Strep-Tactin-AF647, replicates
Method: as §3, §2

[11] = test system: MDA-MB-468; assay: as above; assay type: cell-based; details: Strep-Tactin-AF647, replicates
Method: as §3, §2

[12] = test system: T47D; assay: as above; assay type: cell-based; details: Strep-Tactin-AF647, replicates
Method: as §3, §2

[13] = test system: BT549; assay: as above; assay type: cell-based; details: Strep-Tactin-AF647, replicates
Method: as §3, §2

[14] = test system: T-cells (CD3+), human splenocytes; assay: Siglec-Fc binding to splenocytes, flow cytometry; assay type: cell-based; details: Suppl Fig 12; three replicate columns
Method: as §1, §2

[15] = test system: monocytes (CD14+), human splenocytes; assay: Siglec-Fc binding to splenocytes, flow cytometry; assay type: cell-based; details: Suppl Fig 12; three replicate columns
Method: as §1, §2

[16] = test system: B-cells (CD19+), human splenocytes; assay: Siglec-Fc binding to splenocytes, flow cytometry; assay type: cell-based; details: Suppl Fig 12; three replicate columns
Method: as §1, §2

[17] = test system: NK cells (CD56+), human splenocytes; assay: Siglec-Fc binding to splenocytes, flow cytometry; assay type: cell-based; details: Suppl Fig 12; three replicate columns
Method: as §1, §2

[18] = test system: B-cells (CD19+); assay: Siglec ligands on peripheral blood immune cells, flow cytometry; assay type: cell-based, human; details: replicate values
Method: as §1, §2

[19] = test system: pDCs (CD123high/HLA-DR+); assay: as above; assay type: cell-based, human; details: pDC; replicate values
Method: as §1, §2

[20] = test system: NK cells (CD56+); assay: as above; assay type: cell-based, human; details: replicate values
Method: as §1, §2

[21] = test system: T-cells (CD3+); assay: as above; assay type: cell-based, human; details: replicate values
Method: as §1, §2

[22] = test system: neutrophils (CD15+); assay: as above; assay type: cell-based, human; details: replicate values
Method: as §1, §2

[23] = test system: cDCs (CD123dim/HLA-DR+); assay: as above; assay type: cell-based, human; details: cDC; replicate values
Method: as §1, §2

[24] = test system: monocytes (CD14+); assay: as above; assay type: cell-based, human; parameters: key: median fluorescence intensity (MFI) of Siglec-Fc complex binding; details: replicate values
Method: (§4) Siglec supernatant (50 μL) or purified Siglec was incubated with cells in a 96-well U-bottom plate for 30 min at 4 °C. Following the incubation, 200 μL of flow buffer (HBSS, 0.1% BSA, 5 mM EDTA) was added and the plate was spun down at 300 rcf for 5 min. Strep-Tactin-AF647 (0.55 μg/mL, 50 μL, 0.57 pmol), streptavidin (Biolegend), or anti-human IgG1 (Biolegend) was added to the cells and incubated for 30 min at 4 °C. After, 200 μL of flow buffer (HBSS, 0.1% BSA, 5 mM EDTA) was added and the plate was spun down at 300 rcf for 5 min. The cells were resuspended in 200 μL of flow buffer and processed through the flow cytometer.
as §3, §1, §2

[25] = test system: eosinophils (Siglec-8+); assay: as above; assay type: cell-based, human; parameters: key: median fluorescence intensity (MFI) of Siglec-Fc complex binding; details: replicate values
Method: as §4, §3, §1, §2

[26] = test system: basophils (CCR3+); assay: as above; assay type: cell-based, human; parameters: key: median fluorescence intensity (MFI) of Siglec-Fc complex binding; details: replicate values
Method: as §4, §3, §1, §2

[27] = test system: U937 cells; assay: Flow cytometry, Siglec-Fc pre-complexed with Strep-Tactin, streptavidin or anti-human IgG1; assay type: cell-based; details: U937; Strep-Tactin-AF647; replicates, Fig. 2
Method: as §3, §2

[28] = test system: peripheral blood immune cells; assay: Comparison of 2-step and pre-complexed Siglec-Fc binding, flow cytometry (Figure 3e-g); assay type: cell-based, human; details: Figure 3g

Molecule	Binding, Neutrophils [1]	binding of pre-complexed Siglec-Fc (MFI) [2]	binding of pre-complexed Siglec-Fc (MFI) [3]	binding of pre-complexed Siglec-Fc (MFI) [4]	binding of pre-complexed Siglec-Fc (MFI) [5]	binding of pre-complexed Siglec-Fc (MFI) [6]	binding of pre-complexed Siglec-Fc (MFI) [7]	binding of pre-complexed Siglec-Fc (MFI) [8]	binding of pre-complexed Siglec-Fc (MFI) [9]	binding of pre-complexed Siglec-Fc (MFI) [10]	binding of pre-complexed Siglec-Fc (MFI) [11]	binding of pre-complexed Siglec-Fc (MFI) [12]	binding of pre-complexed Siglec-Fc (MFI) [13]	Binding, T-cells [14]	Binding, Monocytes [15]	Binding, B-cells [16]	Binding, NK [17]	Siglec-Fc binding (Figure 3d) [18]	Siglec-Fc binding (Figure 3d) [19]	Siglec-Fc binding (Figure 3d) [20]	other results
B1	20.7 and 30.4 and 24.9	101 and 105 and 109	196 and 195 and 188	85.3 and 88.8 and 87.9	86.5 and 94.1 and 92.2	73.5 and 79.6 and 81.1	127 (2×) and 130	133 (2×) and 138	212 and 223 and 240	107 and 105 and 113	85.3 and 88 and 88.8	88.8 and 95.2 (2×)	140 and 148 and 151	9.87 and 7.5 and 8.87	22.5 and 51.6 and 43.8	24.9 and 27 and 31.3	16.9 and 14.2 and 13.6	147 and 5.13 and 27	43.6 and 23.1 and 53.9	3.81 and -14.1 and 12.8	Siglec-Fc binding (Figure 3d) [21]: 11.6 and -14.1 and 8.98; Siglec-Fc binding (Figure 3d) [22]: 27 and -33.4 and 14.1; Siglec-Fc binding (Figure 3d) [23]: 28.2 and -2.85 and 34.7; Siglec-Fc binding (Figure 3d) [24]: 74.5 and -10.3 and 64.2; Siglec-Fc binding (Figure 3d) [25]: 15.4 and -50.1 and 11.6; Siglec-Fc binding (Figure 3d) [26]: 73.2 and 10.3 and 39.8; binding of pre-complexed Siglec-Fc (MFI) [27]: 103 and 139 and 125
B2	16.1 and 20.7 and 14.4	74.2 and 80.5 and 83	103 (2×) and 108	131 and 130 and 128	70.6 and 77.5 and 78.9	80.4 and 84.2 and 88.7	116 and 119 and 110	111 and 118 and 117	171 and 183 and 144	102	81.8 and 84.5 and 83.4	75.5 and 80.8 and 81.8	124 and 130 and 128	-5.17 and -4.02 and -2.3	17.2 and 15.5 and 13.2	9.76 and 13.2 and 11.5	-1.72 and -0.57 and 2.3	32.1 and 52.6 and -2.57	74.5 and -8.98 and 57.8	38.5 and 45.7 and 13.8	Siglec-Fc binding (Figure 3d) [21]: 25.7 and 12.5 and 15.5; Siglec-Fc binding (Figure 3d) [22]: 44.9 and 39.4 and 8.1; Siglec-Fc binding (Figure 3d) [23]: 66.8 and -25.7 and 30.8; Siglec-Fc binding (Figure 3d) [24]: 46.2 and 59 and 12.8; Siglec-Fc binding (Figure 3d) [25]: 41.1 and 56.9 and 14.4; Siglec-Fc binding (Figure 3d) [26]: 82.2 and 51.9 and 97; binding of pre-complexed Siglec-Fc (MFI) [27]: 90.2 and 97.8 and 102
B3																					Siglec-9-Fc Binding ([28]; 2-Step): 43.3 and 45.1 and 40.9; Siglec-9-Fc Binding ([28]; Precomplex): 42 and 53.2 and 47.5
